Consider one substance from US20260042831A1, “METHODS OF TREATING SARCOIDOSIS WITH A TNF-A ANTIBODY AND ASSOCIATED COMPOSITIONS AND METHODS” (XENTRIA, INC., priority 2022, published 2026).

The experiment addresses FcγRIIb (UniProt P31994). Put plainly: Octet QK384, FcγRIIb on Ni-NTA biosensors, 6 XTMAB-16 concentrations, 1:2 heterogeneous ligand model fit.

Sequence of FcγRIIb (P31994 43-217): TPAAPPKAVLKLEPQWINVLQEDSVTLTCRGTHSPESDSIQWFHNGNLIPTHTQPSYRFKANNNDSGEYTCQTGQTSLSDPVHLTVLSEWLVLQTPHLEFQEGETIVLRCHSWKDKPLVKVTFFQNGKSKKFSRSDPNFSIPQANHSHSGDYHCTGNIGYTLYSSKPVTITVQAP

For orientation: Kd means a measure of binding affinity in units of concentration. Read a low Kd as higher affinity. Substance XTMAB-16 (antibody) had a Kd of 640 nM.
